The values that follow come from patent US20250152663A1, “COMPOSITION FOR PREVENTION OR TREATMENT OF DRY EYE DISEASE COMPRISING HAPLN1” (HAPLNSCIENCE INC., priority 2021, published 2025).

The test system of experiment [1] is human corneal epithelial cells. Description: Scratch wound healing (cell proliferation and migration) under high osmotic pressure. It is filed as cell-based. Conditions: HCEC, 450 mOsM. Here is the method:
The human corneal epithelial cells were seeded onto 24 wells and incubated for 24 hours under low osmotic pressure conditions (314 mOsM). Then, after replacing the culture medium with a high osmotic pressure medium (450 mOsM), the cells were incubated for 48 hours. Then, the surface of the Petri dish was vertically scratched and washed twice, and then the culture medium was replaced with the high osmotic pressure medium again and simultaneously the cells were treated with different concentrations of the HAPLN1 protein-containing composition of the present disclosure (FIG. 2A). A reduction in the scratched area was confirmed by obtaining photographs using a microscope at a time of scratching (0 h) and after 30 hours (FIG. 2B). This was imaged and a ratio of an area filled with cells to an initial area was identified by using ImageJ (FIG. 2C).

Experiment [2] deals with mouse dry eye model. The experiment can be described thus: Tear volume assay (Schirmer's test strip), low-humidity+scopolamine-induced dry eye disease model. It is filed as in vivo, C57BL/6. How it is done:
Corneal fluorescein score assay and tear volume assay were respectively performed on eyeballs of mice treated with the compositions of Preparation Examples 1, 2, and 3 prepared in Example 7 above by using a low-humidity+scopolamine-induced dry eye disease (DED) model.
While the test animals were raised in a desiccating stress chamber with a relative humidity of 30% or less, scopolamine hydrobromide (S0929, Sigma-aldrich) prepared in a concentration of 2.5 mg/mL in saline (0.9% normal saline, JW Pharmaceuticals Corp.) was subcutaneously injected thereinto four times a day (QID: 09:30 AM, 12:00 PM, 15:00 PM, and 17:30 PM) for 10 days at a dose of 10 mL/kg to induce dry eye disease. The subcutaneous injection was performed at the back while moving positions to minimize damage caused by repeated administration. […]
• (1) General anesthesia of the mice was induced (10 mg/kg xylazine and 100 mg/kg ketamine, intraperitoneal injection). • (2) After 3 hours from administration of scopolamine hydrobromide in the morning (at 9:30 AM), measurement was conducted. • (3) The volume of tear was measured by using a Schirmer's test strip cut to ½ thickness. […] Then, one drop (5 μl) of physiological saline was applied to the eyeballs. • (4) A length of a wet portion of the strip was measured by a ruler. […]

Experiment [3] deals with rabbit dry eye model. The experiment can be described thus: Tear volume assay (STT), benzalkonium chloride-induced dry eye disease model. The class given is in vivo, New Zealand white rabbits. Here is the method: One drop (0.05 ml) of 0.1% benzalkonium chloride (BAC) was administered to both eyes of rabbits twice a day (9:00 and 17:00) for 14 days, and then induction of dry eye was identified by examination of eyes, and the rabbits were classified into groups.
The test substance was dropped into the groups of the rabbit model twice a day (8:30 and 16:30) (Day 15 to 30 (total of 16 days)).
Anesthesia was induced by intramuscular injection of Xylazine and Ketamine, and then one drop of Alcaine Eye Drop was administered and tear and the eye drop remaining therein were removed by using Weck-cel cellulose spear. After putting STT paper on the lower eyelid, a length of a wet region for 5 minutes was measured (STT-2). In addition, stability of the tear film was tested by measuring tear film break up time (TFBUT, measurement of time taken for the tear film to break down). Furthermore, conditions of the cornea and fluorescent staining were identified by a slit test.

The subject of experiment [4] is inflammatory factors (Interleukins, CCL/CXCL family, Chitinase 3-like 1) in human corneal epithelial cells. Description: Human XL cytokine array of culture broth under high osmotic pressure. Conditions: HCEC, 450 mOsM, 24 hours. The class given is cell-based. How it is done: As one of the effects the HAPLN1 protein-containing composition of the present disclosure on the relief of dry eye disease, an effect on the relief of inflammation was verified by using Human XL cytokine array (R&D Systems. ARY022B) based on expression levels of inflammatory factors (Interleukins, CCL/CXCL family, and […]).
First, the human corneal epithelial cells after 4th passage were seeded onto 6 wells and incubated for 24 hours under low osmotic pressure conditions (314 mOsM). Subsequently, the cells were incubated under high osmotic pressure conditions (450 mOsM) for 48 hours and treated with different concentrations (i.e., 10 μg/ml HAPLN 1 μl to 1 ml media->working concentration of 10 ng/ml) of the composition according to the present disclosure. Then, the cells were further incubated for 24 hours, and the culture broth was recovered therefrom, followed by an assay on the expression level of each marker by using Human XL cytokine array (R&D Systems. ARY022B). According to each of the graphs of FIG. 3B illustrating relative expression levels of the markers of the inflammatory factors in the different concentrations of the HAPLN1 protein, it was confirmed that secretion of inflammatory factors such as IL-6, IL-17A, CCL20, CXCL10, CCL5, CD54, and CD176 increased under the high osmotic pressure conditions (450 mOsM).

B1: hyaluronan and proteoglycan link protein 1 (HAPLN1) (protein, listed as Homo sapiens)
chain: MKSLLLLVLISICWADHLSDNYTLDHDRAIHIQAENGPHLLVEAEQAKVFSHRGGNVTLPCKFYRDPTAFGSGIHKIRIKWTKLTSDYLKEVDVFVSMGYHKKTYGGYQGRVFLKGGSDSDASLVITDLTLEDYGRYKCEVIEGLEDDTVVVALDLQGVVFPYFPRLGRYNLNFHEAQQACLDQDAVIASFDQLYDAWRGGLDWCNAGWLSDGSVQYPITKPREPCGGQNTVPGVRNYGFWDKDKSRYDVFCFTSNFNGRFYYLIHPTKLTYDEAVQACLNDGAQIAKVGQIFAAWKILGYDRCDAGWLADGSVRYPISRPRRRCSPTEAAVRFVGFPDKKHKLYGVYCFRAYN
Turning to B1, the “scratched surface covered by cell proliferation and migration” value in experiment [1] (5 and 10 ng/ml, 30 hours, normal cells about 82%) was “about 60%”. The “cell proliferation and migration phenomena of scratched surfaces” value in experiment [1] (5 to 100 ng/ml, 30 hours) is given as “observed over the entire area”. In addition, the “area covered with migrated cells compared with Cyclosporin A” value in experiment [1] (regardless of concentration, vs 0.1 μM Cyclosporin A) was “higher than 0.1 μM of Cyclosporin A”. Also, the “tear volume compared with Cyclosporine A” value in experiment [2] (after 11 days) is recorded as “increased the tear volume far more than Cyclosporine A”. Further, the tear volume result in experiment [2] (eye drop 0.5, 5, 50 μg/ml, 5 μL b.i.d., regardless of the concentration, more than Cyclosporine A) is given as “consistently increased”; in experiment [3] (concentration-dependent, from the 5th day, more than Restasis) it was “consistently increased”. For the same molecule, the “tear volume compared with Restasis” value in experiment [3] (after 10 days) is on record as “increased the tear volume far more than Restasis”. Moreover, the “expression levels of the inflammatory factors, compared with untreated groups” value in experiment [4] (10 to 100 ng/ml) was “lower than that of untreated groups”. For the same molecule, in experiment [4], the “expression levels of IL-17A, Fas ligand/CD178, FGF-7, FGF-19, Angiogenin, RBP-4, and Chitinase 3-like 1” value is on record as “reduced to the levels of normal cells”. For the same molecule, the “expression levels of various inflammatory factors, relative to normal group (1.0)” value in experiment [4] is reported as “decreased to the level of the normal group or less”.
